{"source": "the DeepSol protein solubility set", "data": [{"assay": "soluble on expression in E. coli; label from the status in PepcDB or PDB records", "values": [{"sequence": "MGSDKIHHHHHHMEKENIMTVDIEDFKKSQHILDYIDDDFAIVNSLDGIPYSNDTVRLNCFLIAVCAEGCIQLDINYRTYQLQAGDLLLGLPNTLISRTMLSPKYKIRLAGFSTRFLQRIIKMEKKTWNTAAHIHNNPVKSISEGGDDPVFRFYRDLIVAKINDEPHYYHREVMQHLFSALFCEMLGQLHKEIDAPDKGDSPKEGIKQADYTLRKFVELLSKDKGMHRSVSYYADALCYTPKHFSKVIKQACGRTPLDLINETTIEHIKYRLKRSDKSVKEIAEEFNFPNQSFFGKYVKMHLGTSPANYRNREDE", "soluble on expression in E. coli": "not soluble"}, {"sequence": "MGHHHHHHSHMGLQQEISLQPWCHHPAESCQTTTDMTERLSAEQIKEYKGVFEMFDEEGNGEVKTGELEWLMSLLGINPTKSELASMAKDVDRDNKGFFNCDGFLALMGVYHEKAQNQESELRAAFRVFDKEGKGYIDWNTLKYVLMNAGEPLNEVEAEQMMKEADKDGDRTIDYEEFVAMMTGESFKLIQ", "soluble on expression in E. coli": "soluble"}, {"sequence": "MKSFCDNDDNNHSNTTNLLGFSLSSNMMKMGGRGGREAIYSSSTSSAATSSSSVPPQLVVGDNTSNFGVCYGSNPNGGIYSHMSVMPLRSDGSLCLMEALNRSSHSNHHQDSSPKVEDFFGTHHNNTSHKEAMDLSLDSLFYNTTHEPNTTTNFQEFFSFPQTRNHEEETRNYGNDPSLTHGGSFNVGVYGEFQQSLSLSMSPGSQSSCITGSHHHQQNQNQNHQSQNHQQISEALVETSVGFETTTMAAAKKKRGQEDVVVVGQKQIVHRKSIDTFGQRTSQYRGVTRHRWTGRYEAHLWDNSFKKEGHSRKGRQVYLGGYDMEEKAARAYDLAALKYWGPSTHTNFSAENYQKEIEDMKNMTRQEYVAHLRRKSSGFSRGASIYRGVTRHHQHGRWQARIGRVAGNKDLYLGTFGTQEEAAEAYDVAAIKFRGTNAVTNFDITRYDVDRIMSSNTLLSGELARRNNNSIVVRNTEDQTALNAVVEGGSNKEVSTPERLLSFPAIFALPQVNQKMFGSNMGGNMSPWTSNPNAELKTVALTLPQMPVFAAWADS", "soluble on expression in E. coli": "soluble"}, {"sequence": "MSLGKPEFYDFCVHAVPDGANAVEELSSLSRHLGYSGIALANHSDKLPSKKPVLPSIEGFEVFRGIELVEENPSKLHGLVGKFRSSMDVLIVHGGSEAVNRAALENPRVDILNHPAFDKSSGLNQVLAKAAAENGVAIGITLRPLLHSRGSRRIRMLSDLKANLELARKYDVPLVLCSDAMSCYDLRSPMETLAFAEVCGLEEDEALDALSTVPKKIIKKNRPGPGYVREGIEVLEGEGHHHHHH", "soluble on expression in E. coli": "not soluble"}, {"sequence": "MSLVERARLAEGGGWDCHFHVFDASRYTLAAGSAYQPEDASLAAFRGVCRARGIGRAVLVHPSVYGADHSSYEDALAANGDWLRGVAVVYPDEATTPDARIEHWDLLGTAGTRINRLFPGAPQHPERIVERVKPFGWHVQVLTDIVEDIGLVRRIAARDVPVVVDHFGHHPHAQLLRSAGWQDLIALVREGAAWVKLSAPYRVGAQGPAWPGAQALVDQLVQANPRQLVWGSDWPHPPDHRHPFPAPDQAAIGATIAQWLPDAQLRRQVMELNPLRLYGGTRAAGREGHHHHHH", "soluble on expression in E. coli": "soluble"}, {"sequence": "MVGPLKIGRHEVKYPLIQGGMGVRISGGRLAGHVAKCGGVGLVAAAGISLSGLFTGANYLQSNPEAMRKELRKAYAIAPDGVIGVNIMVALTDYEELVRASIDGGAKVIVCGAGLPLTLPELTAHAPEVALVPIVSSVRAAQLIAKKWEKGFGRLPDAVVVEDPDTAGGHLGEKLENIGAGTYDQYGTIRAIKAYFLEEYGVSVPVVAAGGIWDRDDVLHAFEQGADAVQMASRFVPTVECDADDAYKQAYLECRREDIGLIMSPAGLPGRAILRNQDQIVLHDQLKGVACGNGCLKKCSYKETGERFCIVNALDRAQRGDVETGLVFCGTNAWKADRITTVQEIFDELFAVGEESEKAA", "soluble on expression in E. coli": "not soluble"}, {"sequence": "HHHHHHSEEEAIQIIADPPLPPASFTLRDYVDHSETLQKLVLLGVDLSKIEKHPEAANLLLRLDFEKDIKQMLLFLKDVGIEDNQLGAFLTKNHAIFSEDLENLKTRVAYLHSKNFSKADVAQMVRKAPFLLNFSVERLDNRLGFFQKELELSVKKTRDLVVRLPRLLTGSLEPVKENMKVYRLELGFKHNEIQHMITRIPKMLTANKMKLTETFDFVHNVMSIPHHIIVKFPQVFNTRLFKVKERHLFLTYLGRAQYDPAKPNYISLDKLVSIPDEIFCEEIAKASVQDFEKFLKTL", "soluble on expression in E. coli": "soluble"}, {"sequence": "MGSDKIHHHHHHMQLHLTDDRFNTDPYWTERIKSTFACPPKEVVSMFDQNGYDLTKLEQLYAVANGAETTKHRNSSHITLRQDWFTADDTEYGPHINHAYMFERKGYSGDALAQLEAWSYYRPHFHKLIAMRPKWGLDFSIDYCDREGNVFELLHWEYDGFDHNEVADKKEKMDEFLVNQDWDERARTMLERKNEWHKLGFFEQSEWKTEFFGIEKERFKMVLWK", "soluble on expression in E. coli": "not soluble"}, {"sequence": "MGSDKIHHHHHHMMRGAPMTLRPRLICLPPAGAGPSLFRSWVQNSESIFDVVPVALPGREAHFTKPLPRDIQSLADHVTNEIIGLLQAPYALFGYSMGAVVAYELLRHLSLRRLPLPDAFYILGSNAPDRVLEGREPIHSMTSEDFQQSLVEIGGTPDEILRDREAMALFEPVLRNDFRICETYEFTPPHLPVTFPVHVFVADADHLVSWKAAGAWENCIGQDITMHGIEGSHMLPPQAFAHFIGKLGQLWQTDQVQACAVSTRTA", "soluble on expression in E. coli": "not soluble"}, {"sequence": "MGSDKIHHHHHHMMTDARTTAEGGMETSYGFHKVDEGKKQGLVNEVFHKVAKRYDIMNDVMSAGLHRLWKDAMVSALSPRKDPSYKILDVAGGTGDVAFRIIEASNRLAHATVLDINGSMLAVGEERAAKKKLSDNLTFVEANAEELPFEANTFDAYTVAFGIRNVPRIDVALKEAYRVLKRGGRLLVLEFSEVDMPLLDRVYDAWSFNAIPQFGKMITGDAEPYQYLVESIRKFPNQEDFATMIRTAGFSRVTYTNYTGGIAALHSGWKL", "soluble on expression in E. coli": "not soluble"}, {"sequence": "EFIGCNDHTVVIEDDGRRWVTREPALVYFNKHTWFNVVAMIRDSGVSYYCNIASPFVLDREALKYVDYDLDVKVFPNGERRLLDMDEFEQFSKKWRYP", "soluble on expression in E. coli": "not soluble"}, {"sequence": "MLNIIRAGIYTSVQDSGRHGFRQSGLSHCGALDKPAFQTANLLVGNDANAPALEITLGQLVVEFENETWFALTGAGCEAQLDDQPVWTGWRLPVKAGQRLTLHRPLHGMRSYLAVAGGIAVPEVMGSYSTDLKSGIGGLEGRLLKDGDRLATGKPSRQFSGPQGVKQLLWGNRIRALPGPEYREFDRASQEAFWRSPWQLSPQSNRMGYRLQGQSLTRTTDRELLSHGLLPGVVQVPYNGQPIVLMNDAQTTGGYPRIACIIEADMYHLAQIPLGQPIHFVQCSLEEALNARRERQRYLEQLTWRLQHEHLEHHHHHH", "soluble on expression in E. coli": "not soluble"}, {"sequence": "MKNTFLYFRWEDLHGEIGVDSFNLLRASYSNLSEQQLVELIKELISIEREDIAAKFDIHLSENAPVFDERQHVVYKGVAGDMNYKDMLLSLVTALDLTNTLDHVQNILSLAKCLRSFDREIFARFAKDIAEEVYYSLKLEHHHHHH", "soluble on expression in E. coli": "soluble"}, {"sequence": "MSLAHEMIGTQIVTERLVALLESGTEKVLLIDSRPFVEYNTSHILEAININCSKLMKRRLQQDKVLITELIQHSAKHKVDIDCSQKVVVYDQSSQDVASLSSDCFLTVLLGKLEKSFNSVHLLAGGFAEFSRCFPGLCEGKSTLVPTCISQPCLPVANIGPTRILPNLYLGCQRDVLNKELMQQNGIGYVLNASNTCPKPDFIPESHFLRVPVNDSFCEKILPWLDKSVDFIEKAKASNGCVLVHCLAGISRSATIAIAYIMKRMDMSLDEAYRFVKEKRPTISPNFNFLGQLLDYEKKIKNQTEGHHHHHH", "soluble on expression in E. coli": "soluble"}, {"sequence": "MGSDKIHHHHHHMGPVGYTTLDTAVVERRLGVERLGYRVVGEGYVYRHKYKAGGQRVSTLIGRPEPLDPARVLRVLSAGAYNVVLISPLHGEDDGGLASYIHNNFSAITAVDLQGYYRGYASVWTPPTARIGSLAHISSDDASDPPREPMANIIVYTRGEAGGEVLSPSGSLTIPPPPKLVEDPTGAGDIFTMVFAIMLFRGAPPGPAAEEAAAKTPEILESIRGDEGFQYSVPHSPSEAFWI", "soluble on expression in E. coli": "not soluble"}]}]}
